From the supplement of paper PMC9112550, “Optimization of the antimicrobial peptide Bac7 by deep mutational scanning” (BMC Biology, 2022)

System: Escherichia coli TOP10
Assay: shrunken log2 fold change of peptide-encoding DNA abundance (4.5 h post-induction vs induction); higher = less antimicrobial activity (less host growth inhibition)
Settings: time post-induction: 4.5 h; library: site-saturation at positions 5, 18, 19, 20
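Note: peptides expressed intracellularly from a pBAD plasmid library in pooled LB shake-flask culture, induced with 0.3% L-arabinose, DNA abundance read by NGS, three biological replicates, DESeq2 with apeglm shrinkage.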

Sequence | shrunken log2 fold change
RRIRRRPPRLPRPRPRPDPFPRP | 0.1
RRIRRRPPRLPRPRPRPLMGPRP | 0.018
RRIRHRPPRLPRPRPRPFSNPRP | -1.09
RRIRMRPPRLPRPRPRPLTEPRP | 1.31
RRIRRRPPRLPRPRPRPALVPRP | 0.74
RRIRRRPPRLPRPRPRPFRSPRP | -0.0534
RRIRKRPPRLPRPRPRPAQFPRP | 0.258
RRIRKRPPRLPRPRPRPQPRPRP | 0.752
RRIRPRPPRLPRPRPRPLLIPRP | -0.758
RRIRSRPPRLPRPRPRPINSPRP | 0.0337
RRIRCRPPRLPRPRPRPSIYPRP | -0.713
RRIRKRPPRLPRPRPRPWEEPRP | -0.000921
RRIRRRPPRLPRPRPRPVAKPRP | 0.386
RRIRIRPPRLPRPRPRPTGKPRP | -0.129
RRIRGRPPRLPRPRPRPCFRPRP | 0.0644
RRIRGRPPRLPRPRPRPFNNPRP | -0.206
RRIRLRPPRLPRPRPRPRHYPRP | -0.127
RRIRKRPPRLPRPRPRPPQEPRP | 0.0788
RRIRVRPPRLPRPRPRPWSVPRP | -0.0304
RRIRCRPPRLPRPRPRPFYLPRP | -0.564
RRIRARPPRLPRPRPRPNVWPRP | 0.537
RRIRARPPRLPRPRPRPKEVPRP | -0.0076
RRIRGRPPRLPRPRPRPMQHPRP | 1.24
RRIRDRPPRLPRPRPRPWYWPRP | 0.000762
RRIRSRPPRLPRPRPRPYLSPRP | -0.062

Sequence | shrunken log2 fold change
RRIRTRPPRLPRPRPRPIDQPRP | -0.00192
RRIRARPPRLPRPRPRPWWVPRP | 0.066
RRIRLRPPRLPRPRPRPCPAPRP | -0.00808
RRIRGRPPRLPRPRPRPMHMPRP | 0.347
RRIRMRPPRLPRPRPRPGCEPRP | 1.87
RRIRSRPPRLPRPRPRPGMFPRP | 0.107
RRIRRRPPRLPRPRPRPIFLPRP | 0.0228
RRIRFRPPRLPRPRPRPWWKPRP | 0.0472
RRIRKRPPRLPRPRPRPDTKPRP | -0.0643
RRIRSRPPRLPRPRPRPMERPRP | -0.0898
RRIRWRPPRLPRPRPRPNRRPRP | 0.191
RRIRVRPPRLPRPRPRPNNPPRP | -0.352
RRIRPRPPRLPRPRPRPMSGPRP | 0.115
RRIRARPPRLPRPRPRPQYDPRP | -0.018
RRIRVRPPRLPRPRPRPFQHPRP | -0.131
RRIRPRPPRLPRPRPRPMTLPRP | -0.189
RRIRKRPPRLPRPRPRPMCHPRP | -0.0182
RRIRSRPPRLPRPRPRPWLTPRP | -0.0675
RRIRKRPPRLPRPRPRPPAHPRP | 0.808
RRIRTRPPRLPRPRPRPGWHPRP | -0.014
RRIRNRPPRLPRPRPRPLQHPRP | 0.198
RRIRNRPPRLPRPRPRPSCYPRP | -0.181
RRIRGRPPRLPRPRPRPIAIPRP | 0.216
RRIRNRPPRLPRPRPRPIMCPRP | -0.148
RRIRLRPPRLPRPRPRPFLNPRP | -0.172

Sequence | shrunken log2 fold change
RRIRWRPPRLPRPRPRPGFFPRP | 0.26
RRIRFRPPRLPRPRPRPIDKPRP | -0.499
RRIRTRPPRLPRPRPRPAWHPRP | 0.282
RRIRARPPRLPRPRPRPIKLPRP | -0.16
RRIRFRPPRLPRPRPRPMYKPRP | -0.662
RRIRLRPPRLPRPRPRPANNPRP | -0.116
RRIRTRPPRLPRPRPRPLMLPRP | -0.297
RRIRFRPPRLPRPRPRPDLCPRP | -0.0489
RRIRDRPPRLPRPRPRPRESPRP | 0.583
RRIRCRPPRLPRPRPRPFAAPRP | 0.308
RRIRGRPPRLPRPRPRPEHWPRP | 0.378
RRIRGRPPRLPRPRPRPVFTPRP | 0.523
RRIRMRPPRLPRPRPRPQDAPRP | 0.0668
RRIRERPPRLPRPRPRPFWPPRP | 0.0458
RRIRWRPPRLPRPRPRPNPGPRP | 0.108
RRIRVRPPRLPRPRPRPPYQPRP | -0.3
RRIRRRPPRLPRPRPRPNQQPRP | -0.0676
RRIRMRPPRLPRPRPRPVFRPRP | -0.0467
RRIRTRPPRLPRPRPRPLWIPRP | -0.331
RRIRYRPPRLPRPRPRPYRFPRP | -0.168
RRIRRRPPRLPRPRPRPATYPRP | -0.0435
RRIRCRPPRLPRPRPRPCLVPRP | -0.463
RRIRKRPPRLPRPRPRPPSQPRP | 0.866
RRIRDRPPRLPRPRPRPEKCPRP | -0.000921
RRIRRRPPRLPRPRPRPYIRPRP | -0.715

Sequence | shrunken log2 fold change
RRIRVRPPRLPRPRPRPDPQPRP | 0.52
RRIRKRPPRLPRPRPRPCDTPRP | 0.015
RRIRCRPPRLPRPRPRPAMRPRP | 0.509
RRIRDRPPRLPRPRPRPRVYPRP | 0.102
RRIRIRPPRLPRPRPRPGQKPRP | -0.0432
RRIRCRPPRLPRPRPRPSIAPRP | -0.3
RRIRVRPPRLPRPRPRPIPRPRP | 0.0796
RRIRRRPPRLPRPRPRPMDFPRP | 0.195
RRIRWRPPRLPRPRPRPMIIPRP | -0.0264
RRIRFRPPRLPRPRPRPTHDPRP | 0.241
RRIRDRPPRLPRPRPRPYVRPRP | -0.402
RRIRSRPPRLPRPRPRPNHLPRP | -0.814
RRIRDRPPRLPRPRPRPFYMPRP | -0.735
RRIRLRPPRLPRPRPRPWPNPRP | -0.0032
RRIRNRPPRLPRPRPRPEIVPRP | 0.106
RRIRVRPPRLPRPRPRPFRTPRP | -0.0962
RRIRVRPPRLPRPRPRPLMEPRP | -0.21
RRIRGRPPRLPRPRPRPGVFPRP | 0.465
RRIRERPPRLPRPRPRPRYVPRP | -0.0655
RRIRKRPPRLPRPRPRPVVYPRP | -0.266
RRIRQRPPRLPRPRPRPGPNPRP | -0.0457
RRIRTRPPRLPRPRPRPKKGPRP | -0.0611
RRIRARPPRLPRPRPRPAIRPRP | 0.422
RRIRVRPPRLPRPRPRPNKMPRP | -0.411
RRIRGRPPRLPRPRPRPSKMPRP | 0.0491

Sequence | shrunken log2 fold change
RRIRYRPPRLPRPRPRPQCFPRP | -0.00674
RRIRIRPPRLPRPRPRPVGPPRP | 0.0747
RRIRKRPPRLPRPRPRPELSPRP | 0.0277
RRIRKRPPRLPRPRPRPTKYPRP | -0.106
RRIRKRPPRLPRPRPRPHHPPRP | -0.123
RRIRERPPRLPRPRPRPRDNPRP | -0.321
RRIRRRPPRLPRPRPRPLDCPRP | 0.107
RRIRIRPPRLPRPRPRPHPSPRP | -0.488
RRIRGRPPRLPRPRPRPFSNPRP | 0.064
RRIRLRPPRLPRPRPRPYMEPRP | 0.039
RRIRFRPPRLPRPRPRPTERPRP | -0.22
RRIRRRPPRLPRPRPRPGFFPRP | 0.268
RRIRSRPPRLPRPRPRPGEAPRP | 0.287
RRIRQRPPRLPRPRPRPWMVPRP | -0.0803
RRIRGRPPRLPRPRPRPYNEPRP | -0.329
RRIRPRPPRLPRPRPRPEMYPRP | -0.269
RRIRSRPPRLPRPRPRPPSEPRP | 0.0467
RRIRKRPPRLPRPRPRPGHYPRP | 0.0236
RRIRSRPPRLPRPRPRPKKRPRP | 0.716
RRIRDRPPRLPRPRPRPKHSPRP | -0.211
RRIRFRPPRLPRPRPRPNNDPRP | -0.673
RRIRCRPPRLPRPRPRPMTVPRP | -0.0302
RRIRYRPPRLPRPRPRPHLKPRP | -0.452
RRIRDRPPRLPRPRPRPLVRPRP | 0.223
RRIRARPPRLPRPRPRPEDGPRP | 1.48
